Results from patent US20230141177A1.

Key:
[1] = target: Aβ aggregates in the high molecular weight (HMW) fraction of pooled soluble human AD brain extract (>70 kDa to ~700 kDa) (human) (UniProt P05067); assay: sandwich SPR: HMW material captured by immobilized Clone 5, detected by aducanumab
[2] = target: Aβ aggregates in the high molecular weight (HMW) fraction of pooled soluble human AD brain extract (>70 kDa to ~700 kDa) (human) (UniProt P05067); assay: sandwich SPR: HMW material captured by immobilized Clone 4, detected by aducanumab
[3] = target: AβO in the low molecular weight (LMW) fraction of pooled soluble human AD brain extract (~8 kDa to ~70 kDa) (human) (UniProt P05067); assay: sandwich SPR: LMW material captured by immobilized Clone 14, detected by aducanumab
[4] = target: AβO in the low molecular weight (LMW) fraction of pooled soluble human AD brain extract (~8 kDa to ~70 kDa) (human) (UniProt P05067); assay: sandwich SPR: LMW material captured by immobilized Clone 4, detected by aducanumab
[5] = target: Aβ aggregates in the high molecular weight (HMW) fraction of pooled soluble human AD brain extract (>70 kDa to ~700 kDa) (human) (UniProt P05067); assay: sandwich SPR: HMW material captured by immobilized Clone 14, detected by aducanumab
[6] = target: Aβ aggregates in the high molecular weight (HMW) fraction of pooled soluble human AD brain extract (>70 kDa to ~700 kDa) (human) (UniProt P05067); assay: sandwich SPR: HMW material captured by immobilized Parental, detected by aducanumab
[7] = target: AβO in the low molecular weight (LMW) fraction of pooled soluble human AD brain extract (~8 kDa to ~70 kDa) (human) (UniProt P05067); assay: sandwich SPR: LMW material captured by immobilized Parental, detected by aducanumab

Aducanumab (antibody)
Bound Ab detection by aducanumab, HMW (BRU) [1]: 1.25 BRU | Bound Ab detection by aducanumab, HMW (BRU) [2]: 10.4 BRU | Bound Ab detection by aducanumab, LMW (BRU) [3]: 4.4 BRU | Bound Ab detection by aducanumab, LMW (BRU) [4]: 7.7 BRU | Bound Ab detection by aducanumab, HMW (BRU) [5]: 5.7 BRU | Bound Ab detection by aducanumab, HMW (BRU) [6]: 8.3 BRU | Bound Ab detection by aducanumab, LMW (BRU) [7]: 5.8 BRU
